Biological target: purified HLA-A*02:01 MHC molecule (human | )
Assay: radioligand binding

| Binder | IC50 [nM] |
| --- | --- |
| MLLGSMLYM [MLLGSMLYM, HLA-I peptide from S.iORF1/2] | < 0.5 |
| GLITLSYHL [GLITLSYHL, HLA-I peptide from S.iORF1/2] | < 0.5 |
